Results on 2 proteins are retold here after publication PMC4754747, “A single residue substitution accounts for the significant difference in thermostability between two isoforms of human cytosolic creatine kinase” (Scientific Reports, 2016).

The series deals with the molecule itself. As to the kind of experiment: SEC; gel filtration on Superdex 200 10/300 GL (AKTA purifier) of thermally inactivated samples; heated at 45 °C (thermal inactivation: 0.2 mg/ml enzyme in 5 mM Tris-HCl, pH 8.0, 10 min); dimer to monomers.

B1: hBBCK P36L mutant (BP36L) (enzyme)
chain: not shown
notes: creatine kinase, brain type (B subunit), human, with P36L; Site-directed mutant of m1; details are in the Supplementary Information
For B1, the “stoichiometry N” value was 2.

B2: human brain-type creatine kinase homodimer (hBBCK) (enzyme)
chain: not shown
notes: creatine kinase, brain type (B subunit), human; wild type; also called WT hBBCK; hBCK
With B2, the binding result was “binds”.
